Measurements as given in US20210355194A1 (TWIST BIOSCIENCE, published 2021).
Like-named read-outs stand apart in the source and are kept apart here.

Legend:
[1] = molecular target: SARS-COV2-S1 RBD (mouse IgG2Fc tag) (SARS-CoV-2, UniProt P0DTC2 319-537); test: FACS, S1 RBD-mFc on Vero E6 (ACE2)
[2] = molecular target: T1, Acro SARS-CoV-2 (COVID-19) S1 protein (SARS-CoV-2, UniProt P0DTC2 16-685); test: SPR
T1 construct: also called SARS-CoV-2 S1

[3] = molecular target: SARS-COV2-S1 RBD (mouse IgG2Fc tag) (SARS-CoV-2, UniProt P0DTC2 319-537)
[4] = molecular target: T2, Acro SARS-CoV-2 (COVID-19) S1 protein (SARS-CoV-2, UniProt P0DTC2 16-685); test: SPR; remark: listed apart in the source
T2 construct: also called SARS-CoV-2 S1

[5] = molecular target: SARS-CoV-2 spike on live SARS-CoV-2 virus (SARS-CoV-2, UniProt P0DTC2 14-1273); test: cell-based or functional assay
SARS-CoV-2 S1 protein = molecular target: T3, SARS-CoV-2 S1 protein (SARS-CoV-2, UniProt P0DTC2 16-685); test: phage ELISA screen on S1, mean
T3 construct: also called SARS-CoV-2 Spike Glycoprotein S1; S1 (subunit 1)

Row | Binder | Competition Factor [1] | Kd [2] | IC50 [3] | Kd [4] | further results
1 | variant 5-37 (Fc fusion, VHH-Fc) VHH: EVQLVESGGGLVQPGGSLRLSCAASGSTFSINAMGWFRQAPGKEREFVGGISRSGATTNYADSVKGRFTISADNSKNTAYLQMNSLKPEDTAVYYCAADGVPEYSDYASGPVWGQGTLVTVSS | 8.19 | 30.2 nM | – | – | –
2 | variant 6-67 (Fc fusion) VHH: EVQLVESGGGLVQPGGSLRLSCAASGSFSNYAMGWFRQAPGKEREFVAAISSSGALTSYADSVKGRFTISADNSKNTAYLQMNSLKPEDTAVYYCWIVGPGPLDGMDVWGQGTLVTVSS | – | – | 3.8 nM | – | –
3 | variant 6-34 (Fc fusion) VHH: EVQLVESGGGLVQPGGSLRLSCAASGSAFRSNAMGWFRQAPGKEREFVAHISWSSKSTYYADSVKGRFTISADNSKNTAYLQMNSLKPEDTAVYYCATYCSSTSCFDYWGQGTLVTVSS | – | – | 8.24 nM | 21.3 nM | –
4 | variant 6-57 (Fc fusion) VHH: EVQLVESGGGLVQPGGSLRLSCAASGLTFDDHSMGWFRQAPGKEREFVAAVPLSGNTYYADSVKGRFTISADNSKNTAYLQMNSLKPEDTAVYYCASFSGGPADFDYWGQGTLVTVSS | – | – | 3.13 nM | – | –
5 | variant 6-1 (Fc fusion) VHH: EVQLVESGGGLVQPGGSLRLSCAASGRTFGNYNMGWFRQAPGKEREFVATINSLGGTSYADSVKGRFTISADNSKNTAYLQMNSLKPEDTAVYYCARVDYYMDVWGQGTLVTVSS | – | – | 15.8 nM | – | –
6 | variant 6-10 (Fc fusion) VHH: EVQLVESGGGLVQPGGSLRLSCAASGSIASIHAMGWFRQAPGKEREFVAAISRSGGFGSYADSVKGRFTISADNSKNTAYLQMNSLKPEDTAVYYCARDDKYYDSSGYPAYFQHWGQGTLVTVSS | – | – | 1.44 nM | 29.7 nM | –
7 | variant 6-26 (Fc fusion, VHH-Fc) VHH: EVQLVESGGGLVQPGGSLRLSCAASGDTFSTSWMGWFRQAPGKEREFVATINTGGGTNYADSVKGRFTISADNSKNTAYLQMNSLKPEDTAVYYCARVTTSFDYWGQGTLVTVSS | 6.41 | 38.7 nM | – | – | –
8 | variant 5-34 (Fc fusion, VHH-Fc) VHH: EVQLVESGGGLVQPGGSLRLSCAASGRTFSRYIMGWFRQAPGKEREFVAAISWSGGDNTYYADSVKGRFTISADNSKNTAYLQMNSLKPEDTAVYYCAAYRIVVGGTSPGDWRWGQGTLVTVSS | 5.69 | – | – | – | –
9 | variant 6-41 (Fc fusion) VHH: EVQLVESGGGLVQPGGSLRLSCAASGFTFSTSWMGWFRQAPGKEREFVASINEYGGRNYADSVKGRFTISADNSKNTAYLQMNSLKPEDTAVYYCAGLHYYYDSSGYNPTEYYGMDVWGQGTLVTVSS | – | – | 6.6 nM | – | –
10 | variant 6-55 (Fc fusion, VHH-Fc) VHH: EVQLVESGGGLVQPGGSLRLSCAASGFTMSSSWMGWFRQAPGKEREFVARITSGGSTGYADSVKGRFTISADNSKNTAYLQMNSLKPEDTAVYYCASVDGYFDYWGQGTLVTVSS | 7.98 | 25.2 nM | – | – | –
11 | variant 6-60 (Fc fusion, VHH-Fc) VHH: EVQLVESGGGLVQPGGSLRLSCAASGDTYGSYWMGWFRQAPGKEREFVATISQSGAATAYADSVKGRFTISADNSKNTAYLQMNSLKPEDTAVYYCAGLLRYSGTYYDAFDVWGQGTLVTVSS | 12.6 | 20.1 nM | – | – | –
12 | variant 6-40 (Fc fusion) VHH: EVQLVESGGGLVQPGGSLRLSCAASGFTFSDYWMGWFRQAPGKERELVARVWWNGGSAYYADSVKGRFTISADNSKNTAYLQMNSLKPEDTAVYYCAREVLRQQVVLDYWGQGTLVTVSS | – | – | 1.36 nM | – | –
13 | variant 6-65 (Fc fusion) VHH: EVQLVESGGGLVQPGGSLRLSCAASGLPFSTLHMGWFRQAPGKEREFVASLSIFGATGYADSVKGRFTISADNSKNTAYLQMNSLKPEDTAVYYCWMYYYDSSGYYGNYYYGMDVWGQGTLVTVSS | – | – | 37.5 nM | – | –
14 | variant 6-20 (Fc fusion, VHH-Fc) VHH: EVQLVESGGGLVQPGGSLRLSCAASGSTLPYHAMGWFRQAPGKEREFVAAITWNGASTSYADSVKGRFTISADNSKNTAYLQMNSLKPEDTAVYYCARDRYYDTSASYFESETWGQGTLVTVSS | 9.95 | 20.9 nM | – | – | –
15 | variant 6-45 (Fc fusion) VHH: EVQLVESGGGLVQPGGSLRLSCAASGNMFSINAMGWFRQAPGKEREFVTLISWSSGRTSYADSVKGRFTISADNSKNTAYLQMNSLKPEDTAVYYCASLGYCSGGSCFDYWGQGTLVTVSS | – | – | 1.16 nM | 17.5 nM | EC80 [5]: 4.02 µg/mL
16 | variant 6-18 (Fc fusion) VHH: EVQLVESGGGLVQPGGSLRLSCAASGLTFRNYAMGWFRQAPGKEREFIAGMMWSGGTTTYADSVKGRFTISADNSKNTAYLQMNSLKPEDTAVYYCAREGYYYDSSGYLNYFDYWGQGTLVTVSS | – | – | 12.3 nM | 30.1 nM | –
17 | variant 6-47 (Fc fusion) VHH: EVQLVESGGGLVQPGGSLRLSCAASGRTFSMHAMGWFRQAPGKERELVASITYGGNINYADSVKGRFTISADNSKNTAYLQMNSLKPEDTAVYYCAKEGYYDSTGYRTYFQQWGQGTLVTVSS | – | – | 5.86 nM | – | –
18 | variant 6-38 (Fc fusion) VHH: EVQLVESGGGLVQPGGSLRLSCAASGNTFSGGFMGWFRQAPGKEREFVAVISSLSSKSYADSVKGRFTISADNSKNTAYLQMNSLKPEDTAVYYCAKVDSGYDYWGQGTLVTVSS | – | – | 1.94 nM | 26.6 nM | –
19 | variant 6-54 (Fc fusion) VHH: EVQLVESGGGLVQPGGSLRLSCAASGFEFENHWMGWFRQAPGKEREYVAHITAGGLSNYADSVKGRFTISADNSKNTAYLQMNSLKPEDTAVYYCGRHWGIYDSSGFSSFDYWGQGTLVTVSS | – | – | 8.9 nM | – | –
20 | variant 5-1 (Fc fusion, VHH-Fc) VHH: EVQLVESGGGLVQPGGSLRLSCAASGGTFSSIGMGWFRQAPGKEREFVAAISWDGGATAYADSVKGRFTISADNSKNTAYLQMNSLKPEDTAVYYCAKEDVGKPFDWGQGTLVTVSS | 10 | 15.1 nM | – | – | –
21 | variant 6-73 (Fc fusion, VHH-Fc) VHH: EVQLVESGGGLVQPGGSLRLSCAASGHTFSGYAMGWFRQAPGKEREFVAVITREGSTYYADSVKGRFTISADNSKNTAYLQMNSLKPEDTAVYYCARLGGEGFDYWGQGTLVTVSS | 7.99 | 103 nM | – | – | –
22 | variant 6-44 (Fc fusion) VHH: EVQLVESGGGLVQPGGSLRLSCAASGGTFGVYHMGWFRQAPGKEREFIGRITWTDGSTYYADSVKGRFTISADNSKNTAYLQMNSLKPEDTAVYYCFGLLEVYDMTFDYWGQGTLVTVSS | – | – | 0.97 nM | 8.2 nM | EC80 [5]: 3.16 µg/mL
23 | variant 6-39 (Fc fusion) VHH: EVQLVESGGGLVQPGGSLRLSCAASGFTFSPSWMGWFRQAPGKEREFVAAISWSGGSTAYADSVKGRFTISADNSKNTAYLQMNSLKPEDTAVYYCHGLGEGDPYGDYEGYFDLWGQGTLVTVSS | – | – | 1.53 nM | 11.3 nM | –
24 | variant 6-76 (Fc fusion, VHH-Fc) VHH: EVQLVESGGGLVQPGGSLRLSCAASGLAFDFDGMGWFRQAPGKEREGVAAINSGGSTYYADSVKGRFTISADNSKNTAYLQMNSLKPEDTAVYYCARFFRAHDYWGQGTLVTVSS | 9.96 | 33.5 nM | – | – | –
25 | variant 6-30 (Fc fusion) VHH: EVQLVESGGGLVQPGGSLRLSCAASGFAFGDSWMGWFRQAPGKEREFVATINWSGVTAYADSVKGRFTISADNSKNTAYLQMNSLKPEDTAVYYCARADGYFDYWGQGTLVTVSS | – | – | 2.94 nM | 11.8 nM | –
26 | variant 6-7 (Fc fusion) VHH: EVQLVESGGGLVQPGGSLRLSCAASGFTFSSYWMGWFRQAPGKEREFVATINWSGVTAYADSVKGRFTISADNSKNTAYLQMNSLKPEDTAVYYCARADDYFDYWGQGTLVTVSS | – | – | 1.53 nM | – | –
27 | variant 6-77 (Fc fusion) VHH: EVQLVESGGGLVQPGGSLRLSCAASGFTFDRSWMGWFRQAPGKEREFVAAVTEGGTTSYADSVKGRFTISADNSKNTAYLQMNSLKPEDTAVYYCARADYDFDYWGQGTLVTVSS | – | – | 4.04 nM | 24.6 nM | –
28 | 2-4 (antibody, V domains shown, also called variant 2-4) VH: EVQLLESGGGLVQPGGSLRLSCAASGFTFSDFAMAWVRQAPGKGLEWVSAISGSGDITYYADSVKGRFTISRDNSKNTLYLQMNSLRAEDTAVYYCAREADGLHSPWHFDLWGQGTLVTVSS VL: DIQMTQSPSSLSASVGDRVTITCRASQSIDTYLNWYQQKPGKAPKLLIYAASALASGVPSRFSGSGSGTDFTLTISSLQPEDFATYYCQQSYSAPPYTFGQGTKVEIK | – | – | – | – | ELISA(Avg) (SARS-CoV-2 S1 protein): 15.5 fold over background
29 | variant 5-20 (Fc fusion, VHH-Fc) VHH: EVQLVESGGGLVQPGGSLRLSCAASGRTIVPYTMGWFRQAPGKERELVAAISPSAFTEYADSVKGRFTISADNSKNTAYLQMNSLKPEDTAVYYCAARRWGYDWGQGTLVTVSS | 12.4 | 14.3 nM | – | – | –
